Results reported in the supplement of paper PMC5998384.

Experiments:
HeLa Kyoto [1] = test: solubility change mitosis vs G1/S (difference of NP-40 vs SDS log2 ratios) (log2 ratio difference); higher = more soluble in mitosis
HeLa Kyoto [2] = test: solubility in G1/S (NP-40 vs SDS abundance) (log2 ratio); higher = more soluble; conditions: cell cycle stage: G1/S
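Wherever solubility change mitosis vs G1/S (difference of NP-40 vs SDS log2 ratios) is given: synchronized HeLa Kyoto cells (double thymidine block for G1/S, nocodazole release for mitosis), protein amounts in NP-40 versus SDS lysates quantified by mass spectrometry, three biological replicates.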
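Wherever solubility in G1/S (NP-40 vs SDS abundance) is given: HeLa Kyoto cells arrested at G1/S by double thymidine block, proteins quantified by TMT10plex mass spectrometry in mild NP-40 versus SDS extracts, three biological replicates.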

Substance | solubility change mitosis (log2) (HeLa Kyoto [1]) | solubility in G1/S (log2) (HeLa Kyoto [2])
MFHSPRRLCSALLQRDAPGLRRLPAPGLRRPLSPPAAVPRPASPRLLAAASAASGAARSCSRTVCSMGTGTSRLYSALAKTLNSSAASQHPEYLVSPDPEHLEPIDPKELLEECRAVLHTRPPRFQRDFVDLRTDCPSTHPPIRVMQWNILAQALGEGKDNFVQCPVEALKWEERKCLILEEILAYQPDILCLQEVDHYFDTFQPLLSRLGYQGTFFPKPWSPCLDVEHNNGPDGCALFFLQNRFKLVNSANIRLTAMTLKTNQVAIAQTLECKESGRQFCIAVTHLKARTGWERFRSAQGCDLLQNLQNITQGAKIPLIVCGDFNAEPTEEVYKHFASSSLNLNSAYKLLSADGQSEPPYTTWKIRTSGECRHTLDYIWYSKHALNVRSALDLLTEEQIGPNRLPSFNYPSDHLSLVCDFSFTEESDGLS [NOCT] | -0.0975 | 0.0632
MADSERLSAPGCWAACTNFSRTRKGILLFAEIILCLVILICFSASTPGYSSLSVIEMILAAIFFVVYMCDLHTKIPFINWPWSDFFRTLIAAILYLITSIVVLVERGNHSKIVAGVLGLIATCLFGYDAYVTFPVRQPRHTAAPTDPADGPV [PLP2] | -0.163 | -0.0955
MAGLTLFVGRLPPSARSEQLEELFSQVGPVKQCFVVTEKGSKACRGFGYVTFSMLEDVQRALKEITTFEGCKINVTVAKKKLRNKTKEKGKNENSECPKKEPKAKKAKVADKKARLIIRNLSFKCSEDDLKTVFAQFGAVLEVNIPRKPDGKMRGFGFVQFKNLLEAGKALKGMNMKEIKGRTVAVDWAVAKDKYKDTQSVSAIGEEKSHESKHQESVKKKGREEEDMEEEENDDDDDDDDEEDGVFDDEDEEEENIESKVTKPVQIQKRAVKRPAPAKSSDHSEEDSDLEESDSIDDGEELAQSDTSTEEQEDKAVQVSNKKKRKLPSDVNEGKTVFIRNLSFDSEEEELGELLQQFGELKYVRIVLHPDTEHSKGCAFAQFMTQEAAQKCLLAASPENEAGGLKLDGRQLKVDLAVTRDEAAKLQTTKVKKPTGTRNLYLAREGLIRAGTKAAEGVSAADMAKRERFELLKHQKLKDQNIFVSRTRLCLHNLPKAVDDKQLRKLLLSATSGEKGVRIKECRVMRDLKGVHGNMKGQSLGYAFAEFQEHEHALKALRLINNNPEIFGPLKRPIVEFSLEDRRKLKMKELRIQRSLQKMRSKPATGEPQKGQPEPAKDQQQKAAQHHTEEQSKVPPEQKRKAGSTSWTGFQTKAEVEQVELPDGKKRRKVLALPSHRGPKIRLRDKGKVKPVHPKKPKPQINQWKQEKQQLSSEQVSRKKAKGNKTETRFNQLVEQYKQKLLGPSKGAPLAKRSKWFDS [RBM28] | 1.56 | -2.35
MAGNFWQSSHYLQWILDKQDLLKERQKDLKFLSEEEYWKLQIFFTNVIQALGEHLKLRQQVIATATVYFKRFYARYSLKSIDPVLMAPTCVFLASKVEEFGVVSNTRLIAAATSVLKTRFSYAFPKEFPYRMNHILECEFYLLELMDCCLIVYHPYRPLLQYVQDMGQEDMLLPLAWRIVNDTYRTDLCLLYPPFMIALACLHVACVVQQKDARQWFAELSVDMEKILEIIRVILKLYEQWKNFDERKEMATILSKMPKPKPPPNSEGEQGPNGSQNSSYSQS [CCNC] | -0.0468 | -0.272
MSMILSASVIRVRDGLPLSASTDYEQSTGMQECRKYFKMLSRKLAQLPDRCTLKTGHYNINFISSLGVSYMMLCTENYPNVLAFSFLDELQKEFITTYNMMKTNTAVRPYCFIEFDNFIQRTKQRYNNPRSLSTKINLSDMQTEIKLRPPYQISMCELGSANGVTSAFSVDCKGAGKISSAHQRLEPATLSGIVGFILSLLCGALNLIRGFHAIESLLQSDGDDFNYIIAFFLGTAACLYQCYLLVYYTGWRNVKSFLTFGLICLCNMYLYELRNLWQLFFHVTVGAFVTLQIWLRQAQGKAPDYDV [SEC22A] | -0.0544 | -0.17
PPP3R1 | -0.104 | 0.385
MDVHDLFRRLGAGAKFDTRRFSADAARFQIGKRKYDFDSSEVLQGLDFFGNKKSVPGVCGASQTHQKPQNGEKKEESLTERKREQSKKKRKTMTSEIASQEEGATIQWMSSVEAKIEDKKVQRESKLTSGKLENLRKEKINFLRNKHKIHVQGTDLPDPIATFQQLDQEYKINSRLLQNILDAGFQMPTPIQMQAIPVMLHGRELLASAPTGSGKTLAFSIPILMQLKQPANKGFRALIISPTRELASQIHRELIKISEGTGFRIHMIHKAAVAAKKFGPKSSKKFDILVTTPNRLIYLLKQDPPGIDLASVEWLVVDESDKLFEDGKTGFRDQLASIFLACTSHKVRRAMFSATFAYDVEQWCKLNLDNVISVSIGARNSAVETVEQELLFVGSETGKLLAVRELVKKGFNPPVLVFVQSIERAKELFHELIYEGINVDVIHAERTQQQRDNTVHSFRAGKIWVLICTALLARGIDFKGVNLVINYDFPTSSVEYIHRIGRTGRAGNKGKAITFFTEDDKPLLRSVANVIQQAGCPVPEYIKGFQKLLSKQKKKMIKKPLERESISTTPKCFLEKAKDKQKKVTGQNSKKKVALEDKS [DDX52] | 1.04 | -1.37
MAGLGLGSAVPVWLAEDDLGCIICQGLLDWPATLPCGHSFCRHCLEALWGARDARRWACPTCRQGAAQQPHLRKNTLLQDLADKYRRAAREIQAGSDPAHCPCPGSSSLSSAAARPRRRPELQRVAVEKSITEVAQELTELVEHLVDIVRSLQNQRPLSESGPDNELSILGKAFSSGVDLSMASPKLVTSDTAAGKIRDILHDLEEIQEKLQESVTWKEAPEAQMQGELLEAPSSSSCPLPDQSHPALRRASRFAQWAIHPTFNLKSLSCSLEVSKDSRTVTVSHRPQPYRWSCERFSTSQVLCSQALSSGKHYWEVDTRNCSHWAVGVASWEMSRDQVLGRTMDSCCVEWKGTSQLSAWHMVKETVLGSDRPGVVGIWLNLEEGKLAFYSVDNQEKLLYECTISASSPLYPAFWLYGLHPGNYLIIKQVKV [RNF135] | -0.147 | 0.0392
MRPKTFPATTYSGNSRQRLQEIREGLKQPSKSSVQGLPAGPNSDTSLDAKVLGSKDATRQQQQMRATPKFGPYQKALREIRYSLLPFANESGTSAAAEVNRQMLQELVNAGCDQEMAGRALKQTGSRSIEAALEYISKMGYLDPRNEQIVRVIKQTSPGKGLMPTPVTRRPSFEGTGDSFASYHQLSGTPYEGPSFGADGPTALEEMPRPYVDYLFPGVGPHGPGHQHQHPPKGYGASVEAAGAHFPLQGAHYGRPHLLVPGEPLGYGVQRSPSFQSKTPPETGGYASLPTKGQGGPPGAGLAFPPPAAGLYVPHPHHKQAGPAAHQLHVLGSRSQVFASDSPPQSLLTPSRNSLNVDLYELGSTSVQQWPAATLARRDSLQKPGLEAPPRAHVAFRPDCPVPSRTNSFNSHQPRPGPPGKAEPSLPAPNTVTAVTAAHILHPVKSVRVLRPEPQTAVGPSHPAWVPAPAPAPAPAPAPAAEGLDAKEEHALALGGAGAFPLDVEYGGPDRRCPPPPYPKHLLLRSKSEQYDLDSLCAGMEQSLRAGPNEPEGGDKSRKSAKGDKGGKDKKQIQTSPVPVRKNSRDEEKRESRIKSYSPYAFKFFMEQHVENVIKTYQQKVNRRLQLEQEMAKAGLCEAEQEQMRKILYQKESNYNRLKRAKMDKSMFVKIKTLGIGAFGEVCLACKVDTHALYAMKTLRKKDVLNRNQVAHVKAERDILAEADNEWVVKLYYSFQDKDSLYFVMDYIPGGDMMSLLIRMEVFPEHLARFYIAELTLAIESVHKMGFIHRDIKPDNILIDLDGHIKLTDFGLCTGFRWTHNSKYYQKGSHVRQDSMEPSDLWDDVSNCRCGDRLKTLEQRARKQHQRCLAHSLVGTPNYIAPEVLLRKGYTQLCDWWSVGVILFEMLVGQPPFLAPTPTETQLKVINWENTLHIPAQVKLSPEARDLITKLCCSADHRLGRNGADDLKAHPFFSAIDFSSDIRKQPAPYVPTISHPMDTSNFDPVDEESPWNDASEGSTKAWDTLTSPNNKHPEHAFYEFTFRRFFDDNGYPFRCPKPSGAEASQAESSDLESSDLVDQTEGCQPVYV [LATS2] | -0.0575 | 0.178
